Experiment: yeast display, Sf9 membrane polyspecificity reagent, FACS + sequencing; frameworks hold sequencing errors
Method in brief: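 A nanobody's polyreactivity label depends on the gate it was sorted from. Yeast display cells were stained with 10% biotinylated, detergent-solubilized Sf9 membrane reagent for 1 hour at 4 °C, enriched on streptavidin microbeads and sorted by FACS. The low and high (top ~1%) gates were set on anti-HA fluorescence for expression and streptavidin fluorescence for reagent binding.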

Row | Sequence | polyreactivity (PSR sort gate)
1 | QVQLGESGGGLVQAGGSLRLSCAASGSTFNLYAMGWYRQAPGKERELVAAISFSGGSTYYADSVKGRFTISRDNAKNTVYLQMNSLKPEDTAVYYCAAVESSYEAWDTYYYWGQGTQVTVSS | low polyreactivity
2 | QVQLVESGGGLVQAGGSLRLSCAASGNILPVYAMGWYRQAPGKEREFVAAITSRGGSTYYADSVKGRFTISRDNAKITVYLQMNSLKPDDTAVYYCAAKYLRAYGYWGQGTQVTVSS | high polyreactivity
3 | QVQLVESGGGLVQAGGSLRLSCAASGSIFDWYAMGWYRQAPGKERELVAAIDSSGSSTYYADSVKGRFTISRDNAKNTVYLQMNSLKPEDNAVYYCAADSDWIRDWFGSLYGSDYWGQGSQVTVSS | low polyreactivity
4 | QVQLVESGGGLVQAGGSLRLSCAASGSIFDDNTMGWYRQAPGKERELVAAISSRGGSTYYADSVKGRFTISRDNAKNTVYLQMNSLKPEDTAVYYCATGPRWTWEGSRWKLEFDSWGQGTQVTVSS | low polyreactivity
5 | QVQLVESGGGLVQAGGSLRLSCAASGSTLWYNAMGWYRQAPGKERELVATITAGGGSTYYADSVKGRFTISRDNAKNTVYLQMNSLKPEDTAVYYCATRRSRGPWYRNAYDYWGQGTQVTVSS | low polyreactivity
6 | QVQLVESGGGLVQAGGSLRLSCAASGRTLPEYVMGWYRQAPGKERELVAAITTAGSTNYADSVKGRFTISRDNAKNTVYLQMNSLKPEDTAVYYCNAYPASRGPGNPLDDYWGQGTQVTVSS | low polyreactivity
7 | QVQLVESGGGLVQAGGSLRLSCVASGRIIPCNAMGWYRQAPGKERELVAAISYGGGSTYYADSVKGRFTISRDNAKNTVYLQMNSLKPADTAVYYCAAASSGEYGYWGQGTQVTVSS | low polyreactivity
8 | QVQLVESGGGLVQAGGSLRLSCAASGRTFVDSVMGWYRQAPGKERELVAAISRSGSTYYADSVKGRFTISRDNAKNTVYLQMNSLKPEDTAVYYCAADWSFNRSSGQYGFYYWGQGTQVTVSS | low polyreactivity
9 | QVQLVESGGGLVQAGGSLRLSCSASGLIFWAYAMGWYRQAPGKERELVAAINWRGGSTYYADSVKGRFTISRDNAKNTVYLQMNSLKPEDTAVYYCNTDFQLGEGGSYGYDYWGQGTQVTVSS | low polyreactivity
10 | QVQLVESGGRLVQAGGILRLSCAASGFIFLSYAMGWYRQAPGKERELVAAITSNGGSTYYADSVKGRFTISRDNAKNTVYLQMNSLKPEDTSVYYCAARFSQGKVRMGYWGQGTQVTVSS | high polyreactivity
11 | QVQLVESGGGLVHAGGSLRLSCAASGSTFGDNAMRLYRQAPGKERELVAVISTAGSTYYADSVKGRFTISRDNAKNTVYLQMNSLKPEDTAVYYCAAAYYVWLYGFWYRRYDYWGQGTQVTVSS | low polyreactivity
12 | QVQLVESGGGLVQAGGSLRLSCAASGGTFYLNAMGWYRQAPGKERELVAAISKRSSTTYYADSVKGRFTISRDNAKNTVYLQMNSLKPEDTAVYYCAAEYFDWWVTYDYWGQGTQVTVSS | high polyreactivity
13 | QVQLVESGGGIVQAGGSLRLSCAASGFTFEKNAMGWYRQAPGKERELVAAISRGGSTYADSVKGRFRISRDNAKNTVYLQMNSLKPEDTAVYYCAADTVYIFSSAINGEFGYWGQGTQVTVSS | low polyreactivity
14 | QVQLVESAGGLVQAGGSLRLSCAASGRIFPRYAMGWYRQAPGKERELVAAINTSGGRTYYADSVKGRFTISRDYAKNTVYLQMNSLKPEDTAVYFCAADYRSRYDYWGQGTQVTVSS | high polyreactivity
15 | QDQHVESGGGLVQAGGSLRLRCSASVRTYFDYDMGRYRQAPGKERELVAAISQSGGSTYYADSVKGRFTISRDNAKYTFYLVMNSLKPEDTGVYECNAYYGYGHRIYDYWGQGTQVTVSS | high polyreactivity
16 | QVQLVESGGGLVQAGGSLRLSCAASGGIFLDYVMGWYRPATGKQRELVAAISGSGGTNYADSVKGRFTISRDNAKNTVYLQMNSLKPEDTAVYYCAAVGYYSYSYYTKVGVDYWGQGTQVTVSS | high polyreactivity
17 | QVQLVESGGGLVQAGGSLRLSCAASGSTFLDYAMGWYRQAPGNERELVAAISPDDSSTYYADSVKARFTISRDKAKNTVSLHMTSLKPEDTAVYYFAADDRDWVNYDYWGQGTQVTVSS | low polyreactivity
18 | QVQLVESGGGLVQAGGSLRLSCAASGLIFRYYAMGWYRQAPGKERELVASISGSGGSTYYADSVKGRFTISRDNAKNTVYLQMNSLKPEDTAVYYCAATLAVYRRGPRYNYWGQGTQVTVSS | high polyreactivity
19 | QVQLVESGGGLVQAGGSLRLSCAASGRTFTIYAMGWYRQAPGKEREFVAGITTGGSSTYYADSVKGRFTISRDNAKNTVYLQMNILKPEDTAVYYCAAVSYAWYDYWGQGTHVTVSS | low polyreactivity
20 | QVQLVESGGGLVQAGGSLRLSCAASGRTFWVNAMGSYRQAPGKERELVATIRGSGVSTYYADSVKGRFTISRDNAKNTVYLQMNSLKPEDTAVYYCAAGFAGGYGVTFDYCGQGTQVTVSS | low polyreactivity
21 | QVQLVESGGGLFQAGGSLSLSCAATGIIFRSYAMGWYRQAPGKEREMVAAITRSGGSTYADSVKGRFTISRDNAKNTVDLQMNSLKPEDTAVYYCAADRYSGWVYRRDYWGQGTQVTVSS | low polyreactivity
22 | QVQLVESGGGLVQAGGSLRLSCAASGRTLHDYTMGWYRQAPGKERELVAGITSGGRTNYADSVKGRFTISRDNAKNTVYLQMNSLKPEDTAVYYCAAAWTWWRLYADDYWGQGTQVTVSS | high polyreactivity

Row | Sequence | polyreactivity (PSR sort gate)
23 | QVQLVESGGGLVQAGGSLRLSCAASGSNFNYYTMGWYRQAPGKERELVAAISYRGGRTYYADSVKGRFTISRDTSKNTVYLQMNSLKPEDTAVYYCNAVTRIYEVDYWGQGTQVTVSS | high polyreactivity
24 | QVHLVESGGGLVQAGGSLRLSCAASGFTFDTYDMGWYRQAPGKERELVAAIDRSGVSTYYADSVKGRFTISRDTAKNTVYLQMNSLKQEDPAVYYCAADLWQYDIASWDYTYDYWGQGTQVTVSS | low polyreactivity
25 | QVQLVESGGGLVQAGGSLRLSCAASGSISSFYAMGWYRQAPGKERELVAGITSGGSTNYADSVNGRFTISRDNAKNTVYLKLNSLNPEDTAVFYCAAERTPSYRAYDYWGKGTQVTVSS | low polyreactivity
26 | QVQLVESGGGLVQAGGSLRLSCAASGSIFRWNAMGWYRQAPGKERELVAAITYSGGTTYYADSVKGRFTISRDNAKNTVYLQMNSLKPEDTAVYYCAATYYDYYRLYHLGYWGQGTQVTVSS | high polyreactivity
27 | QVQLEESGGGLVQAGGSLRLSCAASGITFSDYAMGWYRQAPGKERELVAGISFTVGSTYYADSVKRPFTISRDNAKNTVYLQMNSLKPEDTAVYLCNADSFVDLDYWGQGTQVTVSS | low polyreactivity
28 | QVQHVESGGGLVQAGRSLPLSCAASGSIFWDNALGWYRQATGKEMVLVAAITSCGDTTYYADSVKGRFTISRDNSKNTVYLQMNSLKPEDTAVYYCATDSNWYWGFNYWGQGTQVTVSS | low polyreactivity
29 | QVQLVESGAGLVQAGGSLRLSCAASGRTFAFYAMGWYRQAPGKERELVAAITLGASRTYYADSVKGRFTISRDNAKNTVYLQMNSRKPEDTAVYYCNAVGRRNVDSSLNDYWGQGTLVTVSS | low polyreactivity
30 | QVQLVESGGGLVQAGGSLRLSCAASGRTLYQYAMGWYRQAPGKERELVAVITSRGGSTNYADSVKGRFTISRDNAKNTVYLQMNSLKPEDTAVYYCAVLYPKYGKRYGYWGQGSQVTVSS | high polyreactivity
31 | QVQLVESGGGLVQAGGSLRLICAASGRIFRGNAMGWYRQAPGKEMELVDTITIRGGSTYYADSVKGRFTISRDNAKNTVYLKMNSLIPEDTAVYYCNTRTYGYLTQKYDYWGQGTQVTVSS | high polyreactivity
32 | QVQLVESGGGLVQAGGSLRLSCAASGRIFFRNAMGWYRQAPGKERELVAVINTGGSTNYADSVKGRFTISRDNAKNTVFLQMNSLKPEDTAVYYCAVDRASRRTYNQYGFWGQGTQVTVSS | high polyreactivity
33 | QVQLVESGGGLVQAGGSLRLSCAASGFIFLSNGMVWYRQAPGKERELVAAISSSGGSTYYADSVKGRFTISRDTAKNTVYLQMNSLKPEDTAVYYCAKDNGPWFAYDYWGQGSQVTVSS | low polyreactivity
34 | QVQLVESGGGLVQAGGSLRLSCAASGSTFGYYAMGWYRQAPGKERELVAAISWRGGSTYYADSVKGRFTISRDNAKNTVYLQMNSLKPEDTAVYYCAAAIFITGYGSYGYWGQGTQVTVSS | low polyreactivity
35 | QVQLVDSGGGLVQAGGSLRLSCAASGRTFWYYDMGWYRQAPGKERELVATINNVGSTHYADSVKGRFTISRDNAKNTVYLQMNSLNPEDTAVYYCARASYGKMDYWGQGTQLTVSS | high polyreactivity
36 | QVKLVESGGGLVQAGGSLRLSCAASGNIFRRYTMGWYRQAPGKERELVAAISSGGSTNYADSEKGRFTISRDNAKNTVYLQMNSLKPEDTAVYYCAVSYRSFRYYWERYYSWGQGTQVTVSS | high polyreactivity
37 | QVQLVESGVVLVQAGGSLPLSCSASGRIFIHYAMGWYRQAPGKERELVAAISASGGTTNYADSVKGRFTISRDNAKNTVYLQMNSLKPEDTAVYYCAAEGYRSWRGLRSRYYYWGEGTQVTVSS | high polyreactivity
38 | QVQLVESGGGLVQAGGSLRLSCAASGSTFDTYAMGWYRQAPGKEMELVAVISSGGGTYYADSVKGRFTISRDNAKNTVYLQMNSLKPEDTAVYYCAADRPTPYGYESTYDYWGQGTQVTVSS | low polyreactivity
39 | QVQLVESGGGLVQAGGSLRISCAASGGNFRYYTMGWYRQAPGKERELVAAITRGGRTYYADSVKGRFTISRDNAKNTVYIQMNSLKPEDTAVYYCAAVRPRSPVSYENDYWGQGTQVTVSS | high polyreactivity
40 | QVQLVESGGGLLQAGGSLRLSCAASGSTFVTNDMGWYRPAPGKERELVAAISSGSSTNYADSVKGRFTISRDNAKNSVYVHMNSLKPEDTAVYYCAADSLKRYDYWGQGTQVTVSS | low polyreactivity
41 | QVQLVESGGGLVQAGGSLRLSCAASGIIFQLYAMGWYRQAPGKERELVASITLSGTTTYYADSVKGRVTISRDNAKNTVYLQMNSLKPEDTAVYYCAKEYYYWGQGTQVTVSS | low polyreactivity
42 | QVQLVESGGGLVQAGGSLRLSCAASGRIFGGYAMGWYRQAPGKERELVAAISGSGGRTYYADSVKGRFTISRDNAKNTVYLQMNSLKPEDTAVYYCNKGYVYGHEYWGQGTQVTVSS | high polyreactivity
43 | QVQLVESGGGLVQAGGSLRLSCAASGRTFTKYAMGWYRQAPGKERELVATIRGRGGSTYYADSVKGRFTISRDNAKYTVYLQMNSLKPEDTAVYYCAADYWFSSRKYDYWGQGTQVTVSS | high polyreactivity

From the nanobody polyreactivity screen of Harvey et al. (2022)
